tested on: Escherichia coli TOP10; test: shrunken log2 fold change of peptide-encoding DNA abundance (4.5 h post-induction vs induction); higher = less antimicrobial activity (less host growth inhibition); conditions: time post-induction: 4.5 h; library: site-saturation at positions 5, 18, 19, 20
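Note: peptides expressed intracellularly from a pBAD plasmid library in pooled LB shake-flask culture, induced with 0.3% L-arabinose, DNA abundance read by NGS, three biological replicates, DESeq2 with apeglm shrinkage.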

| Sequence | shrunken log2 fold change |
| --- | --- |
| RRIRGRPPRLPRPRPRPSPIPRP | 0.411 |
| RRIRKRPPRLPRPRPRPWNDPRP | 0.0299 |
| RRIRARPPRLPRPRPRPGQMPRP | 0.0151 |
| RRIRYRPPRLPRPRPRPYPDPRP | -0.0152 |
| RRIRQRPPRLPRPRPRPWIWPRP | 0.231 |
| RRIRWRPPRLPRPRPRPDLDPRP | 0.311 |
| RRIRNRPPRLPRPRPRPCMVPRP | -0.69 |
| RRIRNRPPRLPRPRPRPYANPRP | 0.0782 |
| RRIRTRPPRLPRPRPRPMVFPRP | 0.0283 |
| RRIRSRPPRLPRPRPRPVYYPRP | -0.71 |
| RRIRMRPPRLPRPRPRPFSCPRP | -0.115 |
| RRIRKRPPRLPRPRPRPASCPRP | 0.431 |
| RRIRSRPPRLPRPRPRPATCPRP | -0.154 |
| RRIRQRPPRLPRPRPRPNYWPRP | -0.251 |
| RRIRYRPPRLPRPRPRPKYCPRP | 0.0325 |
| RRIRHRPPRLPRPRPRPNCQPRP | 0.358 |
| RRIRGRPPRLPRPRPRPDRQPRP | -0.11 |
| RRIRMRPPRLPRPRPRPWDMPRP | 0.00416 |
| RRIRQRPPRLPRPRPRPLWLPRP | 0.0736 |
| RRIRKRPPRLPRPRPRPQPTPRP | 0.5 |
| RRIRMRPPRLPRPRPRPFAFPRP | 0.0579 |
| RRIRPRPPRLPRPRPRPTIAPRP | -0.0457 |
| RRIRKRPPRLPRPRPRPRRHPRP | 0.523 |
| RRIRPRPPRLPRPRPRPWFGPRP | -0.0238 |
| RRIRYRPPRLPRPRPRPRTAPRP | -0.0512 |

| Sequence | shrunken log2 fold change |
| --- | --- |
| RRIRTRPPRLPRPRPRPCIIPRP | -0.0804 |
| RRIRPRPPRLPRPRPRPDYPPRP | -0.0173 |
| RRIRHRPPRLPRPRPRPVQRPRP | -0.0182 |
| RRIRMRPPRLPRPRPRPIRTPRP | -0.0696 |
| RRIRERPPRLPRPRPRPWGGPRP | 0.267 |
| RRIRIRPPRLPRPRPRPEFHPRP | 0.0992 |
| RRIRTRPPRLPRPRPRPWQVPRP | -0.0764 |
| RRIRDRPPRLPRPRPRPQTQPRP | 0.372 |
| RRIRSRPPRLPRPRPRPPRDPRP | 1.34 |
| RRIRIRPPRLPRPRPRPRHKPRP | -0.704 |
| RRIRMRPPRLPRPRPRPHTVPRP | -0.0708 |
| RRIRHRPPRLPRPRPRPFGQPRP | -0.162 |
| RRIRFRPPRLPRPRPRPFIAPRP | -0.489 |
| RRIRSRPPRLPRPRPRPSHYPRP | -1.44 |
| RRIRRRPPRLPRPRPRPILTPRP | 0.447 |
| RRIRPRPPRLPRPRPRPMWMPRP | 0.000224 |
| RRIRHRPPRLPRPRPRPEKSPRP | 0.0275 |
| RRIRDRPPRLPRPRPRPCALPRP | -0.0616 |
| RRIRNRPPRLPRPRPRPAQWPRP | 0.525 |
| RRIRARPPRLPRPRPRPLPTPRP | 0.771 |
| RRIRNRPPRLPRPRPRPGYAPRP | -0.0974 |
| RRIRIRPPRLPRPRPRPECLPRP | 0.0969 |
| RRIRTRPPRLPRPRPRPTVSPRP | 0.077 |
| RRIRARPPRLPRPRPRPCFRPRP | -0.0247 |
| RRIRMRPPRLPRPRPRPIAWPRP | 0.201 |

| Sequence | shrunken log2 fold change |
| --- | --- |
| RRIRDRPPRLPRPRPRPEGEPRP | -0.0124 |
| RRIRNRPPRLPRPRPRPGCGPRP | 0.451 |
| RRIRPRPPRLPRPRPRPKYFPRP | -0.693 |
| RRIRQRPPRLPRPRPRPKHMPRP | -0.237 |
| RRIRKRPPRLPRPRPRPLDIPRP | -0.0215 |
| RRIRHRPPRLPRPRPRPPRGPRP | 0.564 |
| RRIRWRPPRLPRPRPRPIMQPRP | 0.0828 |
| RRIRKRPPRLPRPRPRPFTQPRP | -0.332 |
| RRIRQRPPRLPRPRPRPKDKPRP | -0.386 |
| RRIRSRPPRLPRPRPRPIRAPRP | 0.106 |
| RRIRYRPPRLPRPRPRPMPKPRP | -0.0102 |
| RRIRTRPPRLPRPRPRPSECPRP | -0.166 |
| RRIRVRPPRLPRPRPRPRYNPRP | -0.381 |
| RRIRFRPPRLPRPRPRPTPIPRP | 0.485 |
| RRIRRRPPRLPRPRPRPWWVPRP | 0.0496 |
| RRIRTRPPRLPRPRPRPNFYPRP | -0.186 |
| RRIRDRPPRLPRPRPRPWECPRP | -0.0018 |
| RRIRYRPPRLPRPRPRPHILPRP | -0.288 |
| RRIRVRPPRLPRPRPRPKYIPRP | -0.821 |
| RRIRKRPPRLPRPRPRPSRFPRP | 1.06 |
| RRIRERPPRLPRPRPRPDERPRP | 0.109 |
| RRIRYRPPRLPRPRPRPYMYPRP | -0.23 |
| RRIRSRPPRLPRPRPRPACIPRP | -0.31 |
| RRIRLRPPRLPRPRPRPRELPRP | 0.765 |
| RRIRDRPPRLPRPRPRPGTAPRP | 0.0777 |

| Sequence | shrunken log2 fold change |
| --- | --- |
| RRIRSRPPRLPRPRPRPNKFPRP | -0.36 |
| RRIRARPPRLPRPRPRPWGEPRP | -0.00466 |
| RRIRQRPPRLPRPRPRPYSFPRP | -0.141 |
| RRIRSRPPRLPRPRPRPHHNPRP | -0.708 |
| RRIRKRPPRLPRPRPRPVSLPRP | 0.0505 |
| RRIRARPPRLPRPRPRPVTLPRP | -0.121 |
| RRIRKRPPRLPRPRPRPEMVPRP | 0.422 |
| RRIRVRPPRLPRPRPRPNMIPRP | -0.491 |
| RRIRPRPPRLPRPRPRPDIPPRP | -0.219 |
| RRIRVRPPRLPRPRPRPCESPRP | -0.374 |
| RRIRSRPPRLPRPRPRPKKSPRP | -0.0117 |
| RRIRCRPPRLPRPRPRPDQPPRP | 0.171 |
| RRIRCRPPRLPRPRPRPMMRPRP | 0.0843 |
| RRIRPRPPRLPRPRPRPKAWPRP | -0.0274 |
| RRIRHRPPRLPRPRPRPSVGPRP | 0.319 |
| RRIRWRPPRLPRPRPRPCYLPRP | -0.33 |
| RRIRDRPPRLPRPRPRPWNTPRP | -0.166 |
| RRIRARPPRLPRPRPRPHKVPRP | 0.31 |
| RRIRTRPPRLPRPRPRPKQRPRP | 0.166 |
| RRIRMRPPRLPRPRPRPQYMPRP | -0.969 |
| RRIRGRPPRLPRPRPRPNCAPRP | 0.811 |
| RRIRTRPPRLPRPRPRPSIMPRP | -0.827 |
| RRIRTRPPRLPRPRPRPWDRPRP | -0.105 |
| RRIRWRPPRLPRPRPRPMIWPRP | 0.0116 |
| RRIRVRPPRLPRPRPRPTQMPRP | 0.19 |

| Sequence | shrunken log2 fold change |
| --- | --- |
| RRIRFRPPRLPRPRPRPNLDPRP | -0.18 |
| RRIRGRPPRLPRPRPRPWYIPRP | -0.291 |
| RRIRSRPPRLPRPRPRPRPWPRP | 0.324 |
| RRIRTRPPRLPRPRPRPKIAPRP | -0.0425 |
| RRIRFRPPRLPRPRPRPRTEPRP | 0.202 |
| RRIRNRPPRLPRPRPRPWRIPRP | 0.0411 |
| RRIRIRPPRLPRPRPRPDFAPRP | 0.222 |
| RRIRKRPPRLPRPRPRPTCEPRP | 0.793 |
| RRIRSRPPRLPRPRPRPHRPPRP | 0.0831 |
| RRIRIRPPRLPRPRPRPYLEPRP | -0.849 |
| RRIRIRPPRLPRPRPRPTKHPRP | -0.528 |
| RRIRFRPPRLPRPRPRPRERPRP | 1.02 |
| RRIRRRPPRLPRPRPRPLHMPRP | 0.0287 |
| RRIRNRPPRLPRPRPRPSRWPRP | 0.417 |
| RRIRWRPPRLPRPRPRPLERPRP | -0.148 |
| RRIRTRPPRLPRPRPRPHTQPRP | -0.0664 |
| RRIRDRPPRLPRPRPRPVYAPRP | -0.025 |
| RRIRDRPPRLPRPRPRPPVMPRP | -0.435 |
| RRIRARPPRLPRPRPRPLEVPRP | 0.676 |
| RRIRFRPPRLPRPRPRPMWSPRP | -0.227 |
| RRIRDRPPRLPRPRPRPRKRPRP | 0.382 |
| RRIRGRPPRLPRPRPRPSDYPRP | 0.0378 |
| RRIRARPPRLPRPRPRPSYCPRP | -0.311 |
| RRIRWRPPRLPRPRPRPPCQPRP | 0.0989 |
| RRIRMRPPRLPRPRPRPNRFPRP | -0.0257 |

| Sequence | shrunken log2 fold change |
| --- | --- |
| RRIRLRPPRLPRPRPRPNYRPRP | -0.571 |
| RRIRCRPPRLPRPRPRPWWPPRP | 0.0266 |
| RRIRKRPPRLPRPRPRPQFRPRP | 0.0319 |
| RRIRVRPPRLPRPRPRPGSNPRP | 0.0377 |
| RRIRERPPRLPRPRPRPTHVPRP | 0.231 |
| RRIRERPPRLPRPRPRPLFHPRP | -0.367 |
| RRIRYRPPRLPRPRPRPLDFPRP | -0.269 |
| RRIRYRPPRLPRPRPRPQNPPRP | -0.483 |
| RRIRYRPPRLPRPRPRPYEEPRP | -0.0354 |
| RRIRKRPPRLPRPRPRPCYYPRP | -0.48 |
| RRIRKRPPRLPRPRPRPWFYPRP | -0.0799 |
| RRIRPRPPRLPRPRPRPNLWPRP | -0.0151 |
| RRIRNRPPRLPRPRPRPTWFPRP | 0.415 |
| RRIRNRPPRLPRPRPRPNRAPRP | 0.0272 |
| RRIRGRPPRLPRPRPRPKWVPRP | 0.233 |
| RRIRHRPPRLPRPRPRPIKRPRP | -0.0154 |
| RRIRCRPPRLPRPRPRPHIEPRP | -0.856 |
| RRIRNRPPRLPRPRPRPEKIPRP | -0.0207 |
| RRIRLRPPRLPRPRPRPGEFPRP | 2.05 |
| RRIRYRPPRLPRPRPRPSKDPRP | -0.642 |
| RRIRTRPPRLPRPRPRPSGIPRP | -0.0172 |
| RRIRSRPPRLPRPRPRPYPYPRP | -0.646 |
| RRIRCRPPRLPRPRPRPKDDPRP | 0.146 |
| RRIRCRPPRLPRPRPRPFVIPRP | -0.526 |
| RRIRWRPPRLPRPRPRPENCPRP | 0.138 |

Source: the supplement of paper PMC9112550, “Optimization of the antimicrobial peptide Bac7 by deep mutational scanning” (BMC Biology, 2022)
